Results: the DeepSol protein solubility set

Test: soluble on expression in E. coli; label from the status in PepcDB or PDB records

Sequence	soluble on expression in E. coli
MSLTALSALIEQKLQSLGTILCQSFPELSPEKIHEAIQQNSNHPELPVYQLGYAIAMSDFVEKVLQKYPHLVKQWWEKSPCFADCTAYIERLNKELANVHDETALYQTLRQFRNIEMAKLSFCQSLNLATVEEIFVQLSQLAESLIIAARDWLYHQACAEIGTPMDEQGNPQQLYILGMGKLGGFELNFSSDIDLIFTYPSQGETSVENTNARRSVDNGKFFTRLGQRLISALDEFTSDGFVYRTDMRLRPFGDSGVLVLSFSAMEQYYQDQGRDWERYAMIKGRVLGAQTKDPNVSKLKKMLRPFVYRRYIDFSVIQSLREMKGKIEREVRRRGLKDNIKLGAGGIREVEFIVQVFQLIRGGREINLQQHSLLKILPEITKLRLITEQQFHDLRESYIFLRRVENILQAINDQQTQTLPTDEIDQIRLVEACKTFTCLNENNQTIEKHYPIENWDDFYRTLQQKQEKVRAVFTQLIGDEQDESSQTDSQWQDFLEADFEDIEQTLLESSVSENNIDEVLEKLAQFKDGLNHRVIGSRGRDVLSHLMPTVLALIFEQENYRTLLPRILNIIEKISSRTTYLELLLENPRALQQVIELCAQSQLISEQLAHYPILLDELLNTEALRHPLPFTQYPAELHQYLLRLPPDDEEQLIDALRQFKQATLLKVAAADILGALPVMKVSDHLTYLAEAIIEVVVNLAWKQVSSRFGVPEHLQNNEKGFLVIGYGKLGGIELGYKSDLDLVFLYDAVESQTTGGKKVIDSNQFYLRLAQKIVSIFSINTSAGVLYEADMRLRPSGDAGLIGCSLSAFSHYQLNDAWTWEKQALVRARPVFGESSLKAKFEHIRQQVLSASRDIEQLKQDVVEMRKKMFAHLSHSKHSEFNLKTDRGGITDIEFIAQYLMLANAPKKPQLTKWSDNVRIFDDMAEAKIISQTDCDTLKQCYVDLRNTIHHLNLLGKSSVVEDSEFVKERSFIQAFWDRLFVSEGHHHHHH	soluble
SKQDASRNAAYTVDCEDYVHVVEFNPFENGDSGNLIAYGGNNYVVIGTCTFQEEEADVEGIQYKTLRTFHHGVRVDGIAWSPETRLDSLPPVIKFCTSAADMKIRLFTSDLQDKNEYKVLEGHTDFINGLVFDPKEGQEIASVSDDHTCRIWNLEGVQTAHFVLHSPGMSVCWHPEETFKLMVAEKNGTIRFYDLLAQQAILSLESEQVPLMSAHWCLKNTFKVGAVAGNDWLIWDITRSSYPQNKRPVHMDRACLFRWSTISENLFATTGYPGKMASQFQIHHLGHPQPILMGSVAVGSGLSWHRTLPLCVIGGDHKLLFWVTEV	soluble
APPKAVLKLEPPWINVLQEDSVTLTCQGARSPESDSIQWFHNGNLIPTHTQPSYRFKANNNDSGEYTCQTGQTSLSDPVHLTVLSEWLVLQTPHLEFQEGETIMLRCHSWKDKPLVKVTFFQNGKSQKFSRLDPTFSIPQANHSHSGDYHCTGNIGYTLFSSKPVTITVQVHHHHHH	soluble
MGSDKIHHHHHHMDKSIKSNAEKFIMIYNEIDRYMRKVLDENERTGNADLVKKMAKRNKVFEEYKDELMLFARLRNSIVHNPYNAELDPIAEPHDKIIVKYGELRDKILNPPLALDTIAVKGKNIYVVTQNESVLDVMTVMKDNNYANVPVVDNLGMIVGVFSKNTVFSYMVENEGVQIRRDTKINDFKEFIPLHKHENEFFAFVSRKTLAVEIEDMFKKRIHGKKKLSLVFITETGRVKEKILGIVTPWDIAIN	not soluble
MSDKDFFSWRRTMLLRFQRMETAEEVYHEIELQAQQLEYDYYSLCVRHPVPFTRPKVAFYTNYPEAWVSYYQAKNFLAIDPVLNPENFSQGHLMWNDDLFSEAQPLWEAARAHGLRRGVTQYLMLPERALGFLSFSRCSAREIPILSDELQLKMQLLVRESLMALMRLNDE	soluble
MGRGSFTQIDTPDQVTERMRALLVKLESPAVTDLTATFSEPGIDVTPARLPDLYRGEPLTLSARMGQARGTLTLTGRIGGQPWQTQLHLDAAQDGTGIGKLWARAKIAEAETARLTGGLTAEAADAAILRLALDHGLTTRLTSLVAVDATPRRPAGMRLASTELPLNLPAGWDFETVFGTQDELEHHHHHH	not soluble
MSLEGKTIGITAIGTDHDWDLKAYQAQIAEIERLGGTAIALDAGRNDQTQVSQIQTLIAQKPDAIIEQLGNLDVLNPWLQKINDAGIPLFTVDTATPHAINNTTSNNYSIGAELALQMVADLGGKGNVLVFNGFYSVPVCKIRYDQMKYVLEAFPDVKIIEPELRDVIPNTIQSAYSNVTDMLTKYPNEGDVGAIWACWDVPMIGATQALQAAGRTDIRTYGVDGSPEFVEMVADPESPAGAVAAQQPSEIGKLAVQNVARHLAGQEVKPFTFAPAVLITKENAAETAADFLPKEGHHHHHH	soluble
